Test results published in article PMC3936014 (Nature communications, 2014).
Where two headings read alike, the source gives them in different places.

Legend:
TFAM (mature) = target: T1, TFAM (mature) (Homo sapiens, UniProt Q00059 43-246); experiment: FRET DNA bending
T1 sequence: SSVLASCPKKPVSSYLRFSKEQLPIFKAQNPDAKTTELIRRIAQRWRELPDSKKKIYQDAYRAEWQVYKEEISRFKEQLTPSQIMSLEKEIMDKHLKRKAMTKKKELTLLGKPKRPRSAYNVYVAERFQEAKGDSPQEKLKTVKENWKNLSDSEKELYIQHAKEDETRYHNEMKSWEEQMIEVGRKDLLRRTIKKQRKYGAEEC

TFAM (43-237) [1] = target: T2, TFAM (43-237) (Homo sapiens, UniProt Q00059 43-237); experiment: X-ray crystallography
T2 sequence: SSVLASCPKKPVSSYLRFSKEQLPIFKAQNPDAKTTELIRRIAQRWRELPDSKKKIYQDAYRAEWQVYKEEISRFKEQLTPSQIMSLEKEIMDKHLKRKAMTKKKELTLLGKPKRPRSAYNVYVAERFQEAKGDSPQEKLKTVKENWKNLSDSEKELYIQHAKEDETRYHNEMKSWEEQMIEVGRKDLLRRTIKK

TFAM (43-237) [2] = target: T2, TFAM (43-237); experiment: X-ray crystallography; remark: listed apart in the source
crystal structure = target: the molecule itself; experiment: crystal structure
TFAM (43-237) [3] = target: T2, TFAM (43-237); experiment: X-ray crystallography; remark: listed apart in the source

B1: nonspecific 22 bp FRET (dsDNA)
DNA 1: ATTCAACCAATAGCCCTGGCCG
DNA 2: CGGCCAGGGCTATTGGTTGAAT
B1: binds (TFAM (mature)).

B2: LSP 28 bp FRET (dsDNA)
DNA 1: TGTTAGTTGGGGGGTGACTGTTAAAAGT
DNA 2: ACTTTTAACAGTCACCCCCCAACTAACA
B2: binds (TFAM (mature)).

B3: HSP1-Br 22 bp (dsDNA)
DNA 1: GGTTGGTTCGGGGTATGGGGTT
DNA 2: AACCCCATACCCCGAACCAACC
modifications: 5-bromo-dU replacing T at strand 1 position 4 (mtDNA 550)
B3: binds (TFAM (43-237) [1]).

B4: nonspecific 22 bp (ATPase6) (dsDNA)
DNA 1: ATTCAACCAATAGCCCTGGCCG
DNA 2: CGGCCAGGGCTATTGGTTGAAT
B4: binds (TFAM (43-237) [2]).

B5: HSP1 22 bp FRET (dsDNA)
DNA 1: GGTTGGTTCGGGGTATGGGGTT
DNA 2: AACCCCATACCCCGAACCAACC
B5: binds (TFAM (mature)).

B6: TFAM (transcription factor A, mitochondrial) lacking the last 9 residues (43-237) (domain or fragment, human, UniProt Q00059 43-237, looked up)
chain: SSVLASCPKKPVSSYLRFSKEQLPIFKAQNPDAKTTELIRRIAQRWRELPDSKKKIYQDAYRAEWQVYKEEISRFKEQLTPSQIMSLEKEIMDKHLKRKAMTKKKELTLLGKPKRPRSAYNVYVAERFQEAKGDSPQEKLKTVKENWKNLSDSEKELYIQHAKEDETRYHNEMKSWEEQMIEVGRKDLLRRTIKK
B6: binds (crystal structure).

B7: HSP1 22 bp (dsDNA)
DNA 1: GGTTGGTTCGGGGTATGGGGTT
DNA 2: AACCCCATACCCCGAACCAACC
B7: binds (TFAM (43-237) [3]).
